This note sets out measurements from the RNAGym collection of RNA variant scans (doi:10.7554/elife.80360).

First the molecules themselves.
B1: HDV Ribozyme (parent)
chain: GGCCGGCAUGGUCCCAGCCUCCUCGCUGGCGCCGGCUGGGCAACAUUCCGAGGGGACCGUCCCCUCGGUAAUGGCGAAUGGGACCCA

In this series the parent is B1. Nature of the series: self-cleavage, relative activity (ratio to wild type); higher = more cleavage; co-transcriptional.
In the case of G10U U72A, the self-cleavage is 0.277.
Next, C57A C66U: 1.18.
C66A C85G: the self-cleavage is 0.918.
Next, G55C G68A: 0.967.
Regarding U72G A78G, the self-cleavage is 0.426.
For the variant C32G C84A, the self-cleavage was found to be 0.0386.
For G59U A78G, the self-cleavage was 0.904.
As to C18G A77G, the self-cleavage stood at 0.0755.
With U12G C66A the figure was 0.923; with C22G C48U, 0.0594; with C22G U46A, 0.0519.
Next, G5A G28A: 0.0378; U47A C75A: 0.138.
With C4A G80C the figure was 0; with U27G U72C, 0.32; with C26G U46G, 0.554.
Regarding G6U A8G, the self-cleavage was found to be 0.346.
With U9G C41A the figure was 0.831.
Next, A8C C32U: 0.538; C33U C44G: 0.453; C18G C63G: 0.199.
With G11C C61U the figure was 0.157; with C18U C30U, 0.185; with G10U C85U, 0.946.
For C18U A42C, the self-cleavage came to 0.185.
With U12A C62A the figure was 0.458; with U12A C62G, 0.133.
Next, G5U G10C: 0.462.
With C49A C75A the figure was 0.156; with G25C C57G, 0.119; with G2A A56C, 0.148.
In the case of C48G C84U, the self-cleavage worked out at 0.848.
Take A56C C57A: the self-cleavage is 1.22.
With C57A U72A the figure was 0.674.
Turning to C15U G28A, the self-cleavage is 0.0692.
Next, U47G A71G: 1.11; G17A C66U: 0.607.
Next, G53C G76U: 0.967.
For C49G G81A, the self-cleavage is 0.361.
In the case of C30G A43G, the self-cleavage is 0.
Next, G1U C61U: 0.377; G40C G54C: 0.343; G31C U47A: 0.467.
With C33U G55U the figure was 0.865.
With G25C U60C the figure was 0.0504.
For the variant G34C G39C, the self-cleavage is 0.0554.
For G55U C63A, the self-cleavage was 0.783.
Next, G10C C57U: 1.11; U47G G52C: 0.895.
With C7U C48G, the self-cleavage came to 0.831.
With U46C C75U the figure was 0.0755.
Next, C3U G55U: 0.805; U9C C48A: 0.911.
Take G31U C49G: the self-cleavage was determined as 0.231.
Next, U69A A71C: 0.935.
Next, C21A G29C: 0.0604.
With G29A C61U, the self-cleavage is 0.274.
With C26U U79A, the self-cleavage is 1.04.
In the case of A8C U37A, the self-cleavage worked out at 0.128.
For the variant A16C A78C, the self-cleavage worked out at 0.166.
Take G2U C61U: the self-cleavage is 0.103.
In the case of A45C G67A, the self-cleavage stood at 0.719.
For G2C A83U, the self-cleavage came out at 0.0791.
In the case of A45C G55A, the self-cleavage worked out at 0.554.
With C14U G40A the figure was 1.17; with G55U C58G, 1.04; with C22G U69A, 0.095.
Next, C32G A43U: 0.
Next, C61U A77C: 0.65; C18A G25C: 0.0405; G34A G74U: 0.0875.
For C57U G80U, the self-cleavage was determined as 0.147.
On to C22G G31C, for which the self-cleavage was determined as 0.0852.
Next, C19G U72G: 0; G6C C19G: 0.192; U65G G80C: 0.185.
Next, C26G G50A: 0.923; A56C C58U: 1.07.
With G52A G76U the figure was 0.983; with G28A G82A, 0.0604.
As to G31U A78U, the self-cleavage was 0.0744.
Turning to G29U U46A, the self-cleavage came out at 0.0665.
Turning to C18A C33U, the self-cleavage came out at 0.0489.
With C49U A87G the figure was 0.959.
Next, C36U A42G: 0.122; C15U C64A: 0.636.
Take C33A G59A: the self-cleavage came to 0.343.
With G28U C64U the figure was 0.0733; with G54U C64U, 0.905; with G2C A51U, 0.0468.
Next, G5U U72G: 0.277; G17A C44A: 0.306.
With G39U C86G the figure was 0.784; with A45C U69A, 0.987.
Take C44G C61U: the self-cleavage is 0.378.
With C33A A42C the figure was 0.146.
With A8G G82U the figure was 0.369; with U60G G74A, 0.227; with G40A G50A, 0.884.
With C32G C41G the figure was 0.0665; with G17U G40U, 0.381; with U60C C64U, 0.895.
On to U20G A42U, for which the self-cleavage was 0.
Consider A51C G81A, for which the self-cleavage stood at 0.323.
Next, C64G A71U: 0.863; A42U G53A: 0.875.
For the variant A8U U47C, the self-cleavage worked out at 0.68.
Next, C64U A87C: 0.971.
With A56U A78C the figure was 0.272; with G53U G82A, 0.496; with G68A, 0.952.
With G11A C33U the figure was 0.271; with G2U C36U, 0.0308; with C13A G59C, 0.237.
U46A C58G: the self-cleavage amounted to 0.712.
With C21A U72G the figure was 0.166; with A16U C24U, 0.314.
Next, G11C C48A: 0.277; C3A U9G: 0.985; G55U U65C: 0.73.
Regarding C33G G81U, the self-cleavage was 0.0354.
Next, G11A A77G: 0.208.
A16U A45U: the self-cleavage turned out to be 0.831.
Next, U9G A56C: 0.462; C48G C66U: 0.868; G52C C75U: 0.134.
With G59C C85U the figure was 1.14; with G1C C32A, 0.
With U23G A87U the figure was 0.715; with C19G G68C, 0.0875.
With C44G A56U, the self-cleavage turned out to be 0.734.
Regarding G1U G17A, the self-cleavage is 0.212.
U12G C21U: the self-cleavage was 0.123.
Next, C3G G11C: 0.225; A8C G17U: 0.287.
Next, U20A C36U: 0.
With G1U C84U the figure was 0.389.
For the variant C14G C62A, the self-cleavage turned out to be 0.437.
Next, C7G U47C: 0.293; G1C C61A: 0.208; U27C A56G: 0.575.
Next, C14G U60C: 0.443; U79A A87G: 0.752.
Next, U47A G81C: 0.161; U23A C66G: 0.787; U46A G67U: 0.789.
